Experimental data as given in patent US20060275803A1, “Rat and mouse members of the CRISP family of genes” (Wyeth, priority 2005, published 2006).

Tests used:
[1] = biological target: T1, substrate peptide H03 (RNKRAVQG) (not fully specified)
T1 chain: RNKRAVQG

[2] = biological target: T2, substrate peptide J03 (PQLHSTGG) (not fully specified)
T2 chain: PQLHSTGG

[3] = biological target: T3, substrate peptide B20 (PQRFGRNT) (not fully specified)
T3 chain: PQRFGRNT

[4] = biological target: T4, substrate peptide O23 (KNVAMQKG) (not fully specified)
T4 chain: KNVAMQKG

[5] = biological target: T5, substrate peptide D06 (ALAEAMKK) (not fully specified)
T5 chain: ALAEAMKK

[6] = biological target: T6, substrate peptide A10 (SAARPAPP) (not fully specified)
T6 chain: SAARPAPP

[7] = biological target: T7, substrate peptide H07 (RVKRQVRS) (not fully specified)
T7 chain: RVKRQVRS

[8] = biological target: T8, substrate peptide O22 (GGVRGPRV) (not fully specified)
T8 chain: GGVRGPRV

[9] = biological target: T9, substrate peptide G24 (RRKRSTRE) (not fully specified)
T9 chain: RRKRSTRE

[10] = biological target: T10, substrate peptide C01 (GPQGLLGA) (not fully specified)
T10 chain: GPQGLLGA

[11] = biological target: T11, substrate peptide C23 (RDAQAHPG) (not fully specified)
T11 chain: RDAQAHPG

[12] = biological target: T12, substrate peptide N17 (RKRRAVLT) (not fully specified)
T12 chain: RKRRAVLT

[13] = biological target: T13, substrate peptide N10 (FYRADQPR) (not fully specified)
T13 chain: FYRADQPR

[14] = biological target: T14, substrate peptide C16 (RVLGLKAH) (not fully specified)
T14 chain: RVLGLKAH

[15] = biological target: T15, substrate peptide M02 (EKQRIIGG) (not fully specified)
T15 chain: EKQRIIGG

[16] = biological target: T16, substrate peptide N05 (RARRELAP) (not fully specified)
T16 chain: RARRELAP

[17] = biological target: T17, substrate peptide H01 (RKKRSTKK) (not fully specified)
T17 chain: RKKRSTKK

[18] = biological target: T18, substrate peptide M07 (GLQRALEI) (not fully specified)
T18 chain: GLQRALEI

[19] = biological target: T19, substrate peptide A01 (WQGGRRKF) (not fully specified)
T19 chain: WQGGRRKF

[20] = biological target: T20, substrate peptide K11 (VIPRSGGS) (not fully specified)
T20 chain: VIPRSGGS

[21] = biological target: T21, substrate peptide L16 (KTPRWGG) (not fully specified)
T21 chain: KTPRWGG

[22] = biological target: T22, substrate peptide J21 (LRNRAQSG) (not fully specified)
T22 chain: LRNRAQSG

[23] = biological target: T23, substrate peptide A09 (RMRRYADA) (not fully specified)
T23 chain: RMRRYADA

[24] = biological target: T24, substrate peptide A05 (SYRKVLGQ) (not fully specified)
T24 chain: SYRKVLGQ

[25] = biological target: T25, substrate peptide N08 (RKRRAPLA) (not fully specified)
T25 chain: RKRRAPLA

[26] = biological target: T26, substrate peptide M16 (RSRREADL) (not fully specified)
T26 chain: RSRREADL

[27] = biological target: T27, substrate peptide B17 (RQRYGKRS) (not fully specified)
T27 chain: RQRYGKRS

[28] = biological target: T28, substrate peptide H02 (RAKRSVHF) (not fully specified)
T28 chain: RAKRSVHF

[29] = biological target: T29, substrate peptide N12 (AKRAASQI) (not fully specified)
T29 chain: AKRAASQI

[30] = biological target: T30, substrate peptide E19 (RLGREGVQ) (not fully specified)
T30 chain: RLGREGVQ

[31] = biological target: T31, substrate peptide B23 (RVKRYRQS) (not fully specified)
T31 chain: RVKRYRQS

[32] = biological target: T32, substrate peptide H11 (RRLLRAIP) (not fully specified)
T32 chain: RRLLRAIP

[33] = biological target: T33, substrate peptide A04 (RGARARLG) (not fully specified)
T33 chain: RGARARLG

[34] = biological target: T34, substrate peptide B22 (APQRFGKK) (not fully specified)
T34 chain: APQRFGKK

[35] = biological target: T35, substrate peptide O16 (AATRRQAV) (not fully specified)
T35 chain: AATRRQAV

[36] = biological target: T36, substrate peptide B11 (AAGVAPLS) (not fully specified)
T36 chain: AAGVAPLS

[37] = biological target: T37, substrate peptide H17 (NGLRADPM) (not fully specified)
T37 chain: NGLRADPM

[38] = biological target: T38, substrate peptide M09 (GSQHIRAE) (not fully specified)
T38 chain: GSQHIRAE

[39] = biological target: T39, substrate peptide M18 (VHRDMAAR) (not fully specified)
T39 chain: VHRDMAAR

substrate peptide = test: Protease activity of rCRISPA purified with or without the sialidase inhibitor DANA; assay type: biochemical, rat
Text: The conservation of protease activity between CRISPA and CRISPC is predicted from both the primary amino acid sequence of the PR-1 domain and the overall domain structure conserved among Tex31 and all mammalian CRISPs. The PR-1 domain of Tex31 is hypothesized to contain a basic substrate recognition site with the predicted catalytic residues His130 and Glu115. The mammalian CRISPs have these residues conserved in the PR-1 domain. […] A sialylated glycan on rCRISPA may be influencing the protein's native confirmation and ability to recognize, bind, or cleave its substrate. If rat CRISPC is glycosylated and sialylated, the glycan may also be involved in the protein's confirmation and ability to recognize, bind, or cleave its substrate.
A protocol for the purification of rCRISPA (rCRISP1) from the epididymis was published in 1997 (Hall J. C. & Tubbs C. E., Prep. Biochem. Biotechnol. 27:239-51 (1997), incorporated herein by reference). Applicants have modified this protocol to include the following amounts of 2,3-dehydro-2-deoxy-N-acetyineuraminic acid (DANA) as an inhibitor of sialidase activity in each of the following buffers:
Protease activity was determined by measuring fluorescence (as per the manufacturer's protocol) at ten minute intervals for 130 minutes in the following assay conditions: […] substrate peptide, […] rCRISPA, 100 mM NaCl, 25 mM Tris-Cl, pH 7.5. […]

B1: native rCRISPA (rCRISP1) purified from epididymis in the presence of DANA (protein)
chain: QDTTDEWDRDLENLSTTKLSVQEEIINKHNQLRRTVSPSGSDLLRVEWDHDAYVNAQKWANRCIYNHSPLQHRTTTLKCGENLFMANYPASWSSVIQDWYDESLDFVFGFGPKKVGVKVGHYTQVVWNSTFLVACGVAECPDQPLKYFYVCHYCPGGNYVGRLYSPYTEGEPCDSCPGNCEDGLCTNSCEYEDNYSNCGDLKKMVSCDDPLLKEGCRASCFCEDKIH
In the case of B1, the “protease activity (fluorescence of substrate peptide)” value [1] is reported as “Cleaved peptides H03 (RNKRAVQG)”, the “protease activity (fluorescence of substrate peptide)” value [2] is reported as “Uncleaved peptides J03 (PQLHSTGG)” and the “protease activity (fluorescence of substrate peptide)” value [3] is reported as “Cleaved peptides B20 (PQRFGRNT)”. For the same molecule, the “protease activity (fluorescence of substrate peptide)” value [4] was “Cleaved peptides O23 (KNVAMQKG)”, the “protease activity (fluorescence of substrate peptide)” value [5] was “Uncleaved peptides D06 (ALAEAMKK)” and the “protease activity (fluorescence of substrate peptide)” value [6] was “Uncleaved peptides A10 (SAARPAPP)”. For the same molecule, the “protease activity (fluorescence of substrate peptide)” value [7] was “Cleaved peptides H07 (RVKRQVRS)”, the “protease activity (fluorescence of substrate peptide)” value [8] was “Cleaved peptides O22 (GGVRGPRV)” and the “protease activity (fluorescence of substrate peptide)” value [9] was “Cleaved peptides G24 (RRKRSTRE)”. The “protease activity (fluorescence of substrate peptide)” value [10] was “Uncleaved peptides C01 (GPQGLLGA)”, the “protease activity (fluorescence of substrate peptide)” value [11] was “Uncleaved peptides C23 (RDAQAHPG)” and the “protease activity (fluorescence of substrate peptide)” value [12] was “Cleaved peptides N17 (RKRRAVLT)”. The “protease activity (fluorescence of substrate peptide)” value [13] was “Uncleaved peptides N10 (FYRADQPR)”, the “protease activity (fluorescence of substrate peptide)” value [14] was “Cleaved peptides C16 (RVLGLKAH)” and the “protease activity (fluorescence of substrate peptide)” value [15] was “Cleaved peptides M02 (EKQRIIGG)”. The “protease activity (fluorescence of substrate peptide)” value [16] was “Cleaved peptides N05 (RARRELAP)”, the “protease activity (fluorescence of substrate peptide)” value [17] was “Cleaved peptides H01 (RKKRSTKK)” and the “protease activity (fluorescence of substrate peptide)” value [18] was “Uncleaved peptides M07 (GLQRALEI)”. The “protease activity (fluorescence of substrate peptide)” value [19] was “Uncleaved peptides A01 (WQGGRRKF)”, the “protease activity (fluorescence of substrate peptide)” value [20] was “Uncleaved peptides K11 (VIPRSGGS)” and the “protease activity (fluorescence of substrate peptide)” value [21] was “Uncleaved peptides L16 (KTPRWGG)”. For the same molecule, the “protease activity (fluorescence of substrate peptide)” value [22] was “Cleaved peptides J21 (LRNRAQSG)”, the “protease activity (fluorescence of substrate peptide)” value [23] was “Cleaved peptides A09 (RMRRYADA)” and the “protease activity (fluorescence of substrate peptide)” value [24] was “Uncleaved peptides A05 (SYRKVLGQ)”. For the same molecule, the “protease activity (fluorescence of substrate peptide)” value [25] was “Cleaved peptides N08 (RKRRAPLA)”, the “protease activity (fluorescence of substrate peptide)” value [26] was “Uncleaved peptides M16 (RSRREADL)” and the “protease activity (fluorescence of substrate peptide)” value [27] was “Cleaved peptides B17 (RQRYGKRS)”. For the same molecule, the “protease activity (fluorescence of substrate peptide)” value [28] was “Uncleaved peptides H02 (RAKRSVHF)”, the “protease activity (fluorescence of substrate peptide)” value [29] was “Cleaved peptides N12 (AKRAASQI)” and the “protease activity (fluorescence of substrate peptide)” value [30] was “Uncleaved peptides E19 (RLGREGVQ)”. The “protease activity (fluorescence of substrate peptide)” value [31] was “Cleaved peptides B23 (RVKRYRQS)”, the “protease activity (fluorescence of substrate peptide)” value [32] was “Cleaved peptides H11 (RRLLRAIP)” and the “protease activity (fluorescence of substrate peptide)” value [33] was “Cleaved peptides A04 (RGARARLG)”. The “protease activity (fluorescence of substrate peptide)” value [34] was “Cleaved peptides B22 (APQRFGKK)”, the “protease activity (fluorescence of substrate peptide)” value [35] was “Cleaved peptides O16 (AATRRQAV)” and the “protease activity (fluorescence of substrate peptide)” value [36] was “Uncleaved peptides B11 (AAGVAPLS)”. For the same molecule, the “protease activity (fluorescence of substrate peptide)” value [37] was “Cleaved peptides H17 (NGLRADPM)”, the “protease activity (fluorescence of substrate peptide)” value [38] was “Uncleaved peptides M09 (GSQHIRAE)” and the “protease activity (fluorescence of substrate peptide)” value [39] was “Uncleaved peptides M18 (VHRDMAAR)”. For the same molecule, the “protease activity of rCRISPA” value (substrate peptide; purified using known procedures without DANA present) was “lacking protease activity” and the “protease activity of rCRISPA” value (substrate peptide; purified with DANA present) was “with protease activity”.
